From US20190382488A1 (IMAGINAB, published 2019)

Assays:
cell-surface human CD8 [1] = target: T1, cell-surface human CD8 (human, UniProt P01732 22-235); assay: flow cytometry, HPB-ALL cells, Protein L-biotin and streptavidin-APC
T1 construct: the cell is named under assay; also called cellular human CD8; CD8 on PC3-CD8 cells
Experimental: (§1) Flow cytometry analysis of cys-diabody binding to cell-surface human CD8 on HPB-ALL cells was performed. Cells were stained with respective concentrations of cys-diabody, washed, stained with a secondary Protein L conjugated to Biotin, washed, then stained with a tertiary streptavidin-APC. Analysis was performed with 10,000 events/point in triplicate for each concentration. The results are shown in graph format in FIG. 30A. The graph presents the mean fluorescence intensity (MFI) vs. the log of the concentration (nM). Error bars represent the standard error. The data indicates an EC₅₀ of 0.04 nM.

cell-surface human CD8 [2] = target: T1, cell-surface human CD8; assay: flow cytometry on HPB-ALL cells, Protein L-biotin then streptavidin-APC
Experimental: as §1

cell-surface human CD8 [3] = target: T1, cell-surface human CD8; assay: as above; remark: listed apart in the source
Experimental: as §1, with “of cys-diabody (+/−C-terminal cysteine conjugation to Desferoxamine) binding to” for “of cys-diabody binding to”, “in FIG. 30C. The graph” for “in FIG. 30A. The graph”, “of 0.04 nM and 0.06 nM.” for “of 0.04 nM.”

cell-surface human CD8 [4] = target: T1, cell-surface human CD8; assay: flow cytometry, primary human CD8+ T cells, Protein L-biotin and streptavidin-APC
Experimental: as §1, with “primary human CD8+ T” for “HPB-ALL”, “30B.” for “30A.”, “0.02” for “0.04”

cell-surface human CD8 [5] = target: T1, cell-surface human CD8; assay: flow cytometry on primary human CD8+ T cells, Protein L-biotin then streptavidin-APC
Experimental: as §1, with “primary human CD8+ T” for “HPB-ALL”, “30B.” for “30A.”, “0.02” for “0.04”

T1 sequence (P01732 22-235 limits assumed): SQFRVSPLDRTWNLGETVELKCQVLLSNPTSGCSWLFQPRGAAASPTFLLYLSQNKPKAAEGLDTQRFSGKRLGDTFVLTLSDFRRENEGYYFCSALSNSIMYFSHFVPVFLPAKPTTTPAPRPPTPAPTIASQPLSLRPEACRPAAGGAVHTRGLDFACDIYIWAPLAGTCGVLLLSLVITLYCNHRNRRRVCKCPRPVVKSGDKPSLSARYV

EC50 (cell-surface human CD8 [1]): 0.04 nM
EC50 (cell-surface human CD8 [2]): 0.04 nM
EC50 (cell-surface human CD8 [3]): 0.04 nM
EC50 (cell-surface human CD8 [4]): 0.02 nM
EC50 (cell-surface human CD8 [5]): 0.02 nM
B1: IAb_Cys-Db3b_CD8 (other)
chain: DVQITQSPSSLSASVGDRVTITCRTSRSISQYLAWYQQKPGKVPKLLIYSGSTLQSGVPSRFSGSGSGTDFTLTISSLQPEDVATYYCQQHNENPLTFGGGTKVEIKGGGSGGGGEVQLVESGGGLVQPGGSLRLSCAASGFNIKDTYIHFVRQAPGKGLEWIGRIDPANDNTLYASKFQGKATISADTSKNTAYLQMNSLRAEDTAVYYCGRGYGYYVFDHWGQGTLVTVSSGGC
notes: Cys-diabody homodimer; also called humanized OKT8 cys-diabody VL-8-VH
